This is an account of results in PMC11549370, “Two distinct regulatory pathways govern Cct2-Atg8 binding in the process of solid aggrephagy” (EMBO Reports, 2024).

One assay concerns the target LC3C (UniProt Q9BXW4). In words: anti-FLAG co-IP, anti-HA blot. The conditions noted are these: reference: HA-CCT2 wild type; sites S458.
In another assay the target is Atg11 (UniProt Q12527). In words: anti-FLAG co-IP, anti-HA blot. The conditions noted are these: reference: wild-type 3×HA-Cct2; sites S412,S470.
The target in assay [1] is T1, GST-Cct2 phosphorylated in vitro by Atg1 (S. cerevisiae, UniProt P39076 1-527, phosphorylated by Atg1; the paper maps the sites to S412 and S470).
T1 construct: Cct2, S. cerevisiae; also called phosphorylated GST-Cct2 WT; phosphorylated products; source: E. coli, purified, then incubated with WT Atg1-3×FLAG (from yeast) and ATP and enriched on GST beads; not shown: GST, N-terminal, kept
T1 sequence (P39076 whole entry): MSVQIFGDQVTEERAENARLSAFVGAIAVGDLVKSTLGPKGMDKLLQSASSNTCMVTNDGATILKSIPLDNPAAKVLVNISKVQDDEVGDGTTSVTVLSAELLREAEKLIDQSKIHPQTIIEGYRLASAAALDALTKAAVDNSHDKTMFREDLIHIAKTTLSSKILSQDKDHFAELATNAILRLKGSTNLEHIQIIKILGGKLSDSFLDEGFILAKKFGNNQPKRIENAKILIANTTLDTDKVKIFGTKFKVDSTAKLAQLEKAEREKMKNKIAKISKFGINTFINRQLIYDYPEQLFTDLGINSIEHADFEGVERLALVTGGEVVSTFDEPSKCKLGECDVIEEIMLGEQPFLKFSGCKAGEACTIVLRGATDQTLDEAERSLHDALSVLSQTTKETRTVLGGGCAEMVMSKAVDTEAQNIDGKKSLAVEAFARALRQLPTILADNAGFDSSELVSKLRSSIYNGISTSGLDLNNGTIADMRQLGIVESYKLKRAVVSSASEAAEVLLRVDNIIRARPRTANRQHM
The assay can be described thus: pull-down; GST-Cct2 first incubated with Atg1-3×FLAG and ATP (30 °C, 30 min), enriched on GST beads, then His-Atg8 or Atg11 CC4 added in interaction buffer (1 mM EDTA, 1 mM EGTA, 150 mM NaCl, 1% Triton X-100 in 1×PBS), 2 h, 4 °C; Coomassie staining. The conditions noted are these: both partners purified.

The target in a further assay is T2, GST-Cct2 D473A (S. cerevisiae, UniProt P39076 1-527, D473A).
T2 construct: Cct2, S. cerevisiae; also called pGEX-4T-1-Cct2 D473A; source: E. coli, purified; not shown: GST, N-terminal, kept
T2 sequence (P39076 whole entry D473A): as the sequence (P39076 whole entry) above, with D473A counted along it
The assay can be described thus: pull-down; in vitro GST pulldown: GST-tagged protein on GST beads, prey added in binding buffer B (1 mM EDTA, 1 mM EGTA, 150 mM NaCl, 1% Triton X-100 in 1×PBS), 3 h, 4 °C; SDS-PAGE, Coomassie staining. The conditions noted are these: both partners purified.

The next assay concerns the target T3, GST-Cct2 (S. cerevisiae, UniProt P39076 1-527).
T3 construct: Cct2, subunit of the TRiC complex, S. cerevisiae; the CCT2 gene cloned into pGEX-4T-1; also called WT GST-Cct2; pGEX-4T-1-Cct2; source: E. coli, purified; not shown: GST, N-terminal, kept
The description is as above. The conditions noted are these: both partners purified.

Another assay concerns the target T4, GST-Cct2 I487E (S. cerevisiae, UniProt P39076 1-527, I487E).
T4 construct: Cct2, S. cerevisiae; also called pGEX-4T-1-Cct2 I487E; source: E. coli, purified; not shown: GST, N-terminal, kept
Described as above. The conditions noted are these: both partners purified.

In assay [2] the target is T5, GST-Cct2 S412A-S470A (2A) (S. cerevisiae, UniProt P39076 1-527, S412A | S470A).
T5 construct: Cct2, S. cerevisiae; also called Cct2-2A mutant protein; pGEX-4T-1-Cct2 S412A-S470A(2A); source: E. coli, purified; not shown: GST, N-terminal, kept
T5 sequence (P39076 whole entry S412A/S470A): as the sequence (P39076 whole entry) above, with S412A, S470A counted along it
The assay is described as above. The conditions noted are these: both partners purified.

T3 sequence (P39076 whole entry): as the sequence (P39076 whole entry) above
T4 sequence (P39076 whole entry I487E): as the sequence (P39076 whole entry) above, with I487E counted along it

For “CCT2 (hCCT2) (from UniProt P78371) HA-CCT2 S458A”, the “binding against the reference” value with LC3C is reported as “weaker”.

Regarding “Cct2 (from UniProt P39076) 3×HA-Cct2 S412A-S470A”, the “binding against the reference” value with Atg11 was “weaker”.

B1: His-Atg8 (natural protein, S. cerevisiae, UniProt P38182 1-117, looked up)
chain: MKSTFKSEYPFEKRKAESERIADRFKNRIPVICEKAEKSDIPEIDKRKYLVPADLTVGQFVYVIRKRIMLPPEKAIFIFVNDTLPPTAALMSAIYQEHKDKDGFLYVTYSGENTFGR
notes: Atg8, S. cerevisiae; source: E. coli, purified; not shown: His, N-terminal, kept
With B1, the binding result (in assay [1]; with GST-Cct2 D473A; in the assay with GST-Cct2; with GST-Cct2 I487E; in assay [2]) was “binds” each time.
